From article PMC9106921 (Nature immunology, 2022)
No end group written: not given here.

Molecular target: T1, recombinant cytoplasmic tail of CD4 (residues 421-458, C422S, C455S) (human, UniProt P01730 421-458, C422S | C455S)
T1 chain (looked up): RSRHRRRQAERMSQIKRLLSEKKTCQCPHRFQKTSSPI
Experiment: NMR titration

pKa of the pH-dependent disruption of the complex: 4.55 ± 0.1
Binder: SHPEDDWMENIDVCENCHYPIVPLDGKGT (domain or fragment, human, UniProt P06239 7-35, looked up, cysteine pairing not given here; also: 15N isotope labelling) [recombinant Lck (residues 7-35), 15N-labelled]
